In patent US20170166649A1 (MAX DELBR CK CENTRUM F R MOLEKULARE MEDIZIN IN DER …, published 2017):

How the values were obtained:
[1] = molecular target: T1, human CD269 (BCMA) on human multiple myeloma cells (MM.1S, RPMI-8226) (human, UniProt Q02223 1-184); test: flow cytometry on MM.1S cells
T1 construct: whole, on cells; also called BCMA-positive MM.1S cells; CD269-positive MM.1S cells
T1 sequence (looked up): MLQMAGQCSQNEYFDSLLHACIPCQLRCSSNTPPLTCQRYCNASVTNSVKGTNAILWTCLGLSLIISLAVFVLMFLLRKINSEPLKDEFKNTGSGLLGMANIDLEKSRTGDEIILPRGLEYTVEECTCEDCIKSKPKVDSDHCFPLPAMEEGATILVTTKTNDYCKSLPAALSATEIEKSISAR

[2] = molecular target: T2, extracellular domain of human CD269 (BCMA, TNFRSF17) (human, UniProt Q02223 4-54); test: ELISA of hybridoma J22.9 supernatant on BCMA-coated microtiter plates at the given days of culture
T2 construct: also called hBCMA; human BCMA
T2 sequence: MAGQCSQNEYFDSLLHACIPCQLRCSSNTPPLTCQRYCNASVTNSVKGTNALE

[3] = molecular target: T2, extracellular domain of human CD269 …; test: complex isolated by size exclusion chromatography and crystallised
Procedure: (Fab)₂ fragments were generated from full length J22.9-xi IgG by incubation with pepsin. J22.9-xi was passed over a PD-10 buffer exchange column into 50 mM sodium acetate, pH 3.5 and pepsin added at 30 μg per milligram J22.9-xi. Incubation at 37° C. for 2.5 hours was sufficient to completely digest the fragment crystallizable (Fc) region and pepsin was inactivated by exchange over a PD-10 column into PBS (pH 7.2). The reduction of the (Fab)₂ fragments to individual Fabs was accomplished in PBS by addition of 2-Mercaptoethylamine (50 mM) in the presence of 5 mM ethylenediaminetetraacetic acid (EDTA). After incubation for 90 minutes at 37° C., the reduced cysteines were blocked by alkylation with 500 μM iodoacetamide for 30 minutes followed by buffer exchange into fresh PBS. The Fab fragments were combined with 1.5 molar equivalents of purified BCMA and the complexes isolated by size exclusion chromatography on a Superdex 75 16/60 column.
Concentrated complexes were supplemented with 0.5 molar equivalents of pure BCMA to ensure saturation and were subjected to crystallization screening. Initial Fab:BCMA crystallization conditions were identified from commercial screens (Qiagen) in 96-well sitting drop format plates using a Gryphon pipetting robot (200 nl drops) and optimized in 24 well plates in hanging drops (2-3 ul). […]

[4] = molecular target: T3, extracellular domain of cynomolgous BCMA (cynomolgus, UniProt A0A2K5UD97 1-53); test: ELISA on plates coated with cynomolgus BCMA (1 ug/ml), % of max
T3 construct: extracellular domain; also called cyBCMA; cynoBCMA
T3 sequence (A0A2K5UD97 entry or part of it): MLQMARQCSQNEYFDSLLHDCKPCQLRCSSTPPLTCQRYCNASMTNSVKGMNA
Procedure: (§1) ELISA was carried out as described herein using BCMA-coated microtiter plates (1 microg/ml).
(§2) Microtiter plates were coated with 1 μg/ml of the extracellular domain of human or cynomolgous BCMA (hBCMA or cyBCMA, respectively). Coated BCMA was detected with serial dilution of J22.9-xi, J22.9-H, J22.9-ISY and J22.9-FSY ranging from 0.26 pM to 500 nM. Binding of antibodies to the coated BCMA was detected with horseradish peroxidase (HRP)-conjugated goat anti-human secondary antibody (Jackson ImmunoResearch, 109-035-098, dilution 1:5,000).

[5] = molecular target: T2, extracellular domain of human CD269 …; test: SPR, value printed beside the trace for 10.0 nM BCMA; neither a quantity name nor a unit is printed, and the five values average to the mean Kd of 54 pM of paragraph 196
[6] = molecular target: T2, extracellular domain of human CD269 …; test: SPR, value printed beside the trace for 1.1 nM BCMA; neither a quantity name nor a unit is printed, and the five values average to the mean Kd of 54 pM of paragraph 196
[7] = molecular target: T2, extracellular domain of human CD269 …; test: SPR, value printed beside the trace for 90.0 nM BCMA; neither a quantity name nor a unit is printed, and the five values average to the mean Kd of 54 pM of paragraph 196
[8] = molecular target: T2, extracellular domain of human CD269 …; test: SPR, value printed beside the trace for 30.0 nM BCMA; neither a quantity name nor a unit is printed, and the five values average to the mean Kd of 54 pM of paragraph 196
[9] = molecular target: T3, extracellular domain of cynomolgous BCMA; test: SPR, IgG immobilised, cynomolgus BCMA in mobile phase (n = 2)
Procedure: (§3) FIG. 12: SPR raw data: Binding affinities of the chimeric J22.9-xi and humanized variants to human (A) and cynomolgus (B) BCMA was measured by Surface Plasmon Resonance (SPR) Spectrometry. IgGs were immobilized via amine chemistry to a Proteon GLH sensor chip and binding measured with BCMA in the mobile phase. The order of raw data traces in the graph corresponds to the order to samples listed in the legend of the figure.
(§4) SPR was performed on a ProteonXPR36 using phosphate buffered saline supplemented with 0.005% Tween-20 (PBST). Whole IgG at a concentration of 15 ug/ml was immobilized to a Proteon GLH sensor chip using standard amine chemistry according to the manufacturer's instructions. For binding experiments, human or cynomolgus BCMA in PBST was used as the mobile phase.

[10] = molecular target: T2, extracellular domain of human CD269 …; test: ELISA on plates coated with human BCMA (1 ug/ml), % of max
Procedure: as §1, §2

[11] = molecular target: T2, extracellular domain of human CD269 …; test: SPR, IgG immobilised, human BCMA in mobile phase (n = 3)
Procedure: as §3, §4

[12] = molecular target: T2, extracellular domain of human CD269 …; test: SPR; mean Kd of FIG. 1c, initial SPR characterisation (not the n = 3 series of Table 6)
[13] = molecular target: T2, extracellular domain of human CD269 …; test: SPR, value printed beside the trace for 3.3 nM BCMA; neither a quantity name nor a unit is printed, and the five values average to the mean Kd of 54 pM of paragraph 196

B1: J22.9-xi-N-glycan (deglycosylated J22.9-xi) (antibody, human IgG1, V domains shown)
VH: QVQLQQSGGGLVQPGGSLKLSCAASGIDFSRYWMSWVRRAPGKGLEWIGEINPDSSTINYAPSLKDKFIISRDNAKNTLYLQMSKVRSEDTALYYCASLYYDYGDAMDYWGQGTSVTVSS
VL: DIVMTQSQRFMTTSVGDRVSVTCKASQSVDSNVAWYQQKPRQSPKALIFSASLRFSGVPARFTGSGSGTDFTLTISNLQSEDLAEYFCQQYNNYPLTFGAGTKLELKR
modifications: N-linked oligosaccharide chains at Asn297 of the heavy chain removed with PNGase F
notes: also called J22.9-xi without N-glycans
B1: binds [1].

B2: antibody in the supernatant of mouse hybridoma J22.9 (antibody, V domains shown)
VH: QVQLQQSGGGLVQPGGSLKLSCAASGIDFSRYWMSWVRRAPGKGLEWIGEINPDSSTINYAPSLKDKFIISRDNAKNTLYLQMSKVRSEDTALYYCASLYYDYGDAMDYWGQGTSVTVSS
VL: DIVMTQSQRFMTTSVGDRVSVTCKASQSVDSNVAWYQQKPRQSPKALIFSASLRFSGVPARFTGSGSGTDFTLTISNLQSEDLAEYFCQQYNNYPLTFGAGTKLELKR
notes: Mouse antibody; also called hybridoma J22.9 supernatant
B2: binds [2].

B3: Fab fragment prepared from J22.9-xi (Fab, V domains shown)
VH: QVQLQQSGGGLVQPGGSLKLSCAASGIDFSRYWMSWVRRAPGKGLEWIGEINPDSSTINYAPSLKDKFIISRDNAKNTLYLQMSKVRSEDTALYYCASLYYDYGDAMDYWGQGTSVTVSS
VL: DIVMTQSQRFMTTSVGDRVSVTCKASQSVDSNVAWYQQKPRQSPKALIFSASLRFSGVPARFTGSGSGTDFTLTISNLQSEDLAEYFCQQYNNYPLTFGAGTKLELKR
modifications: reduced cysteines blocked by alkylation with iodoacetamide
notes: also called J22.9-xi Fab
B3: binds [3].

B4: chimeric antibody J22.9-xi (antibody, V domains shown)
VH: QVQLQQSGGGLVQPGGSLKLSCAASGIDFSRYWMSWVRRAPGKGLEWIGEINPDSSTINYAPSLKDKFIISRDNAKNTLYLQMSKVRSEDTALYYCASLYYDYGDAMDYWGQGTSVTVSS
VL: DIVMTQSQRFMTTSVGDRVSVTCKASQSVDSNVAWYQQKPRQSPKALIFSASLRFSGVPARFTGSGSGTDFTLTISNLQSEDLAEYFCQQYNNYPLTFGAGTKLELKR
notes: Full length IgG made in 293-6E cells
B4 was tested, and the “EC50 (read off the curve)” value [4] was about 0.2 nM, the Kd [5] was 0.0555 nM and the Kd [6] was 0.021 nM. It also gave a Kd [7] of 0.088 nM, a Kd [8] of 0.0695 nM and a Kd [9] of 2.7 nM. The “EC50 (read off the curve)” value [10] was about 0.2 nM, the Kd [11] was 0.28 nM and the Kd [12] was 0.054 nM. For the same binder, the Kd [13] was 0.0362 nM.
